{"source": "paper PMC3641820", "molecular_target": "Recombinant Borrelia burgdorferi HtrA (HtrABb, BB0104) with intact N-terminal His-tag (Borrelia burgdorferi strain B31A3)", "experiment": "SEC", "data": [{"substance": "Recombinant Borrelia burgdorferi HtrA (HtrABb, BB0104) with intact N-terminal His-tag (enzyme)", "values": [{"measurement": "stoichiometry N", "result": 3}]}]}
